The Human Domainome abundance scans (Beltran et al. 2025)
± gives the uncertainty stated by the source.

Assay: abundance fitness (aPCA) (normalised: wild type 0, dead -1); higher = more abundant; growth selection in yeast, the domain comes from the species named
Conditions: Homo sapiens
Work on “E3 ubiquitin-protein ligase NEDD4-like N215P, Q96PU5” yielded an abundance fitness of -0.171 ± 0.074. In the case of “E3 ubiquitin-protein ligase NEDD4-like N215Q, Q96PU5”, the abundance fitness is reported as -0.081 ± 0.091. “E3 ubiquitin-protein ligase NEDD4-like N215R, Q96PU5” gave an abundance fitness of -0.193 ± 0.063. In the case of “E3 ubiquitin-protein ligase NEDD4-like N215S, Q96PU5”, the abundance fitness is reported as -0.013 ± 0.07. For “E3 ubiquitin-protein ligase NEDD4-like N215T, Q96PU5”, the abundance fitness was -0.118 ± 0.095. Substance “E3 ubiquitin-protein ligase NEDD4-like N215V, Q96PU5” has an abundance fitness of -0.263 ± 0.071. In the case of “E3 ubiquitin-protein ligase NEDD4-like N215W, Q96PU5”, the abundance fitness is reported as -0.293 ± 0.069. For “E3 ubiquitin-protein ligase NEDD4-like N215Y, Q96PU5”, the abundance fitness was -0.173 ± 0.1. With “E3 ubiquitin-protein ligase NEDD4-like N216A, Q96PU5” the abundance fitness was 0.016 ± 0.056. Substance “E3 ubiquitin-protein ligase NEDD4-like N216C, Q96PU5” has an abundance fitness of -0.09 ± 0.098. Work on “E3 ubiquitin-protein ligase NEDD4-like N216D, Q96PU5” yielded an abundance fitness of -0.142 ± 0.085. For “E3 ubiquitin-protein ligase NEDD4-like N216E, Q96PU5”, the abundance fitness was -0.188 ± 0.076. Work on “E3 ubiquitin-protein ligase NEDD4-like N216F, Q96PU5” yielded an abundance fitness of 0.052 ± 0.091. For “E3 ubiquitin-protein ligase NEDD4-like N216G, Q96PU5”, the abundance fitness was 0.127 ± 0.052. “E3 ubiquitin-protein ligase NEDD4-like N216I, Q96PU5” gave an abundance fitness of 0.014 ± 0.079. “E3 ubiquitin-protein ligase NEDD4-like N216L, Q96PU5” gave an abundance fitness of -0.001 ± 0.056. For “E3 ubiquitin-protein ligase NEDD4-like N216M, Q96PU5”, the abundance fitness was 0.18 ± 0.094. In the case of “E3 ubiquitin-protein ligase NEDD4-like N216P, Q96PU5”, the abundance fitness is reported as -0.147 ± 0.089. Work on “E3 ubiquitin-protein ligase NEDD4-like N216Q, Q96PU5” yielded an abundance fitness of -0.343 ± 0.1. “E3 ubiquitin-protein ligase NEDD4-like N216R, Q96PU5” gave an abundance fitness of -0.239 ± 0.065. “E3 ubiquitin-protein ligase NEDD4-like N216S, Q96PU5” gave an abundance fitness of 0.065 ± 0.058. “E3 ubiquitin-protein ligase NEDD4-like N216T, Q96PU5” gave an abundance fitness of 0.127 ± 0.086. “E3 ubiquitin-protein ligase NEDD4-like N216V, Q96PU5” showed an abundance fitness of -0.151 ± 0.056. With “E3 ubiquitin-protein ligase NEDD4-like N216W, Q96PU5” the abundance fitness was 0.029 ± 0.062. Substance “E3 ubiquitin-protein ligase NEDD4-like P191A, Q96PU5” has an abundance fitness of -0.044 ± 0.07. In the case of “E3 ubiquitin-protein ligase NEDD4-like P191C, Q96PU5”, the abundance fitness is reported as -0.155 ± 0.087. “E3 ubiquitin-protein ligase NEDD4-like P191D, Q96PU5” showed an abundance fitness of -0.086 ± 0.11. “E3 ubiquitin-protein ligase NEDD4-like P191E, Q96PU5” gave an abundance fitness of -0.086 ± 0.07. Work on “E3 ubiquitin-protein ligase NEDD4-like P191F, Q96PU5” yielded an abundance fitness of -0.326 ± 0.12. In the case of “E3 ubiquitin-protein ligase NEDD4-like P191G, Q96PU5”, the abundance fitness is reported as -0.118 ± 0.054. Work on “E3 ubiquitin-protein ligase NEDD4-like P191H, Q96PU5” yielded an abundance fitness of -0.072 ± 0.073. “E3 ubiquitin-protein ligase NEDD4-like P191I, Q96PU5” showed an abundance fitness of 0.152 ± 0.12. For “E3 ubiquitin-protein ligase NEDD4-like P191K, Q96PU5”, the abundance fitness was 0.024 ± 0.076. In the case of “E3 ubiquitin-protein ligase NEDD4-like P191M, Q96PU5”, the abundance fitness is reported as -0.378 ± 0.057. Substance “E3 ubiquitin-protein ligase NEDD4-like P191N, Q96PU5” has an abundance fitness of 0.051 ± 0.064. Substance “E3 ubiquitin-protein ligase NEDD4-like P191Q, Q96PU5” has an abundance fitness of 0.024 ± 0.074. Substance “E3 ubiquitin-protein ligase NEDD4-like P191R, Q96PU5” has an abundance fitness of -0.167 ± 0.061. In the case of “E3 ubiquitin-protein ligase NEDD4-like P191S, Q96PU5”, the abundance fitness is reported as 0.037 ± 0.069. Substance “E3 ubiquitin-protein ligase NEDD4-like P191T, Q96PU5” has an abundance fitness of 0.125 ± 0.077. In the case of “E3 ubiquitin-protein ligase NEDD4-like P191V, Q96PU5”, the abundance fitness is reported as -0.028 ± 0.058. For “E3 ubiquitin-protein ligase NEDD4-like P191W, Q96PU5”, the abundance fitness was -0.378 ± 0.058. Substance “E3 ubiquitin-protein ligase NEDD4-like P191Y, Q96PU5” has an abundance fitness of -0.432 ± 0.14. “E3 ubiquitin-protein ligase NEDD4-like P192A, Q96PU5” gave an abundance fitness of -0.021 ± 0.078. For “E3 ubiquitin-protein ligase NEDD4-like P192D, Q96PU5”, the abundance fitness was -0.173 ± 0.063. In the case of “E3 ubiquitin-protein ligase NEDD4-like P192E, Q96PU5”, the abundance fitness is reported as -0.369 ± 0.079. With “E3 ubiquitin-protein ligase NEDD4-like P192F, Q96PU5” the abundance fitness was -0.296 ± 0.075. For “E3 ubiquitin-protein ligase NEDD4-like P192G, Q96PU5”, the abundance fitness was -0.064 ± 0.06. “E3 ubiquitin-protein ligase NEDD4-like P192H, Q96PU5” gave an abundance fitness of -0.1 ± 0.071. In the case of “E3 ubiquitin-protein ligase NEDD4-like P192I, Q96PU5”, the abundance fitness is reported as -0.269 ± 0.1. “E3 ubiquitin-protein ligase NEDD4-like P192K, Q96PU5” showed an abundance fitness of -0.086 ± 0.095. Work on “E3 ubiquitin-protein ligase NEDD4-like P192L, Q96PU5” yielded an abundance fitness of -0.173 ± 0.072. In the case of “E3 ubiquitin-protein ligase NEDD4-like P192M, Q96PU5”, the abundance fitness is reported as 0.094 ± 0.082. Substance “E3 ubiquitin-protein ligase NEDD4-like P192N, Q96PU5” has an abundance fitness of -0.014 ± 0.059. For “E3 ubiquitin-protein ligase NEDD4-like P192Q, Q96PU5”, the abundance fitness was 0.02 ± 0.076. In the case of “E3 ubiquitin-protein ligase NEDD4-like P192R, Q96PU5”, the abundance fitness is reported as 0.012 ± 0.055. “E3 ubiquitin-protein ligase NEDD4-like P192S, Q96PU5” showed an abundance fitness of -0.201 ± 0.082. With “E3 ubiquitin-protein ligase NEDD4-like P192W, Q96PU5” the abundance fitness was -0.484 ± 0.072. For “E3 ubiquitin-protein ligase NEDD4-like P192Y, Q96PU5”, the abundance fitness was -0.31 ± 0.068. Work on “E3 ubiquitin-protein ligase NEDD4-like P193A, Q96PU5” yielded an abundance fitness of -0.12 ± 0.068. Work on “E3 ubiquitin-protein ligase NEDD4-like P193C, Q96PU5” yielded an abundance fitness of 0.042 ± 0.095. For “E3 ubiquitin-protein ligase NEDD4-like P193D, Q96PU5”, the abundance fitness was -0.131 ± 0.076. “E3 ubiquitin-protein ligase NEDD4-like P193E, Q96PU5” showed an abundance fitness of -0.07 ± 0.087. Work on “E3 ubiquitin-protein ligase NEDD4-like P193F, Q96PU5” yielded an abundance fitness of -0.339 ± 0.11. For “E3 ubiquitin-protein ligase NEDD4-like P193G, Q96PU5”, the abundance fitness was -0.086 ± 0.058. In the case of “E3 ubiquitin-protein ligase NEDD4-like P193H, Q96PU5”, the abundance fitness is reported as -0.058 ± 0.11. With “E3 ubiquitin-protein ligase NEDD4-like P193I, Q96PU5” the abundance fitness was -0.079 ± 0.052. “E3 ubiquitin-protein ligase NEDD4-like P193K, Q96PU5” showed an abundance fitness of -0.033 ± 0.069. “E3 ubiquitin-protein ligase NEDD4-like P193L, Q96PU5” showed an abundance fitness of -0.103 ± 0.055. “E3 ubiquitin-protein ligase NEDD4-like P193N, Q96PU5” showed an abundance fitness of -0.25 ± 0.11. “E3 ubiquitin-protein ligase NEDD4-like P193Q, Q96PU5” gave an abundance fitness of -0.21 ± 0.098. With “E3 ubiquitin-protein ligase NEDD4-like P193R, Q96PU5” the abundance fitness was 0.025 ± 0.055. For “E3 ubiquitin-protein ligase NEDD4-like P193S, Q96PU5”, the abundance fitness was -0.042 ± 0.063. With “E3 ubiquitin-protein ligase NEDD4-like P193T, Q96PU5” the abundance fitness was -0.177 ± 0.075. In the case of “E3 ubiquitin-protein ligase NEDD4-like P193V, Q96PU5”, the abundance fitness is reported as -0.003 ± 0.054. “E3 ubiquitin-protein ligase NEDD4-like P193W, Q96PU5” gave an abundance fitness of -0.359 ± 0.067. “E3 ubiquitin-protein ligase NEDD4-like P193Y, Q96PU5” showed an abundance fitness of -0.057 ± 0.062. With “E3 ubiquitin-protein ligase NEDD4-like P194A, Q96PU5” the abundance fitness was -0.057 ± 0.066. Work on “E3 ubiquitin-protein ligase NEDD4-like P194C, Q96PU5” yielded an abundance fitness of -0.147 ± 0.076. “E3 ubiquitin-protein ligase NEDD4-like P194D, Q96PU5” showed an abundance fitness of -0.008 ± 0.09. Work on “E3 ubiquitin-protein ligase NEDD4-like P194E, Q96PU5” yielded an abundance fitness of -0.103 ± 0.072. “E3 ubiquitin-protein ligase NEDD4-like P194F, Q96PU5” gave an abundance fitness of -0.443 ± 0.084. “E3 ubiquitin-protein ligase NEDD4-like P194G, Q96PU5” showed an abundance fitness of -0.05 ± 0.059. With “E3 ubiquitin-protein ligase NEDD4-like P194H, Q96PU5” the abundance fitness was -0.094 ± 0.073. In the case of “E3 ubiquitin-protein ligase NEDD4-like P194I, Q96PU5”, the abundance fitness is reported as -0.294 ± 0.1. For “E3 ubiquitin-protein ligase NEDD4-like P194K, Q96PU5”, the abundance fitness was 0.071 ± 0.063. “E3 ubiquitin-protein ligase NEDD4-like P194L, Q96PU5” showed an abundance fitness of -0.094 ± 0.054. Substance “E3 ubiquitin-protein ligase NEDD4-like P194M, Q96PU5” has an abundance fitness of 0.013 ± 0.072. Work on “E3 ubiquitin-protein ligase NEDD4-like P194N, Q96PU5” yielded an abundance fitness of -0.304 ± 0.11. Work on “E3 ubiquitin-protein ligase NEDD4-like P194Q, Q96PU5” yielded an abundance fitness of 0.061 ± 0.079. With “E3 ubiquitin-protein ligase NEDD4-like P194R, Q96PU5” the abundance fitness was 0.048 ± 0.065. Substance “E3 ubiquitin-protein ligase NEDD4-like P194S, Q96PU5” has an abundance fitness of -0.06 ± 0.065. With “E3 ubiquitin-protein ligase NEDD4-like P194T, Q96PU5” the abundance fitness was -0.107 ± 0.07. In the case of “E3 ubiquitin-protein ligase NEDD4-like P194V, Q96PU5”, the abundance fitness is reported as -0.002 ± 0.058. For “E3 ubiquitin-protein ligase NEDD4-like P194W, Q96PU5”, the abundance fitness was -0.327 ± 0.076. “E3 ubiquitin-protein ligase NEDD4-like P194Y, Q96PU5” gave an abundance fitness of -0.279 ± 0.093.
